{"source": "patent US9333272B2", "about": "“Fibrin binding peptide conjugates for diagnostic and therapeutic applications” (Bracco Imaging SpA, priority 2006, dated 2016)", "target": "T1, fibrin in tumor, Neuro 2A neuroblastoma (Mus musculus, UniProt E9PV24+Q8K0E8+Q8VCM7)", "T1 construct": "from tissue; host or cells: tumor stroma of living mice (BALB-neuT mammary tumor, TRAMP prostate tumor, Neuro-2a neuroblastoma in A/J mice)", "T1 sequence (E9PV24 20-557 isoform E9PV24-2 limits assumed)": "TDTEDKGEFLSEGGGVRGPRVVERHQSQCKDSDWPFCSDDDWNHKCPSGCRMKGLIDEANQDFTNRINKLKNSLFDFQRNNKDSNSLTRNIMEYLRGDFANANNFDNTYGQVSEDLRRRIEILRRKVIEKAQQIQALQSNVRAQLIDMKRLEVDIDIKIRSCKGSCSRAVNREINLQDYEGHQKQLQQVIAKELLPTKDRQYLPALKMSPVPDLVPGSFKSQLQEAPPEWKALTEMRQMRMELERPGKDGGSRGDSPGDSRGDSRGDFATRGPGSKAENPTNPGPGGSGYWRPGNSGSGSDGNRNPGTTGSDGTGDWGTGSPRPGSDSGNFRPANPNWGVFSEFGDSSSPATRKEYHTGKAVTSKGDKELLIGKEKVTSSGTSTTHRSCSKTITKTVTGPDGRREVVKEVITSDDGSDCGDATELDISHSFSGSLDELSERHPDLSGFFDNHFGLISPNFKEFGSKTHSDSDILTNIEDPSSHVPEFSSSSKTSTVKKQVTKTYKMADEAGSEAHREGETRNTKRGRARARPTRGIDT", "T1 sequence (Q8K0E8 35-481 limits assumed)": "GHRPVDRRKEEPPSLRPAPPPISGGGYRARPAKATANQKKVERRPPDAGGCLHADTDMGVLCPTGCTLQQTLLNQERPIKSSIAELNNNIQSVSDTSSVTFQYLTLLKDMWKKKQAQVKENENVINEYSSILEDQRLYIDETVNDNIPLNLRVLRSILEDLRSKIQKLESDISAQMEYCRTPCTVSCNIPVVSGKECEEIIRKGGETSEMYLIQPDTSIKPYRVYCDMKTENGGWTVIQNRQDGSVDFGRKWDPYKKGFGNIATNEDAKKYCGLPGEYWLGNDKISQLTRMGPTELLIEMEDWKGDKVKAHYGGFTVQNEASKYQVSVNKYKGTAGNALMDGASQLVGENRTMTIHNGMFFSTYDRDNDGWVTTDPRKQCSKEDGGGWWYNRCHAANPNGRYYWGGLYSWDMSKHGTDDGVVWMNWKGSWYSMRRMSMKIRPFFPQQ", "T1 sequence (Q8VCM7 26-436)": "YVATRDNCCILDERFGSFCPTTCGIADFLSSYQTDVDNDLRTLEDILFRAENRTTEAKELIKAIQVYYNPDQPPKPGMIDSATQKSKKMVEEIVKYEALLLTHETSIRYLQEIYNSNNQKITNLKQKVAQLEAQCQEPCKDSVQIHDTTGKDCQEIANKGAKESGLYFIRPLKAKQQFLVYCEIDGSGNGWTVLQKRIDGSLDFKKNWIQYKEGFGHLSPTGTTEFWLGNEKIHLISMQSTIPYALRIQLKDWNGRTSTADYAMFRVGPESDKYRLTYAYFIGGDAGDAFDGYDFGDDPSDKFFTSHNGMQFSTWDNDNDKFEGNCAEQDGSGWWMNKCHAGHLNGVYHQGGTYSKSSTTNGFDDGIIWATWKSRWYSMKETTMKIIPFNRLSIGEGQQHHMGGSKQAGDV", "assay": "In vivo MRI, neuroblastoma tumor induced by Neuro 2A cells, Example 18", "conditions": "25 μmol/kg of complex, 4 h post injection, 2T", "experimental": "This test has been performed on mice with neuroblastoma tumor induced by inoculation of 2.10^6 Neuro 2A cells.\nTwo groups of 5 mice each inoculated were formed to test the Reference compound 2 and the Chelate complex 1.\nAt day-10 post tumor cells inoculation, mice with similar tumor size (5-10 mm in diameter) were selected for the in vivo MRI tests. Before and post contrast administration, T1 and T2 high resolution 2D spin-echo and 3D gradient echo images were acquired. MRI was performed at 4 h and 24 h post injection. The maximum signal intensity was measured in the entire tumor area and in each image post contrast covering the whole tumor and compared to the pre-contrast images. At the end of MRI exams, all animals were sacrificed and the tumor, blood, liver, kidneys and femoral bone were removed and prepared for Gd assay by ICP. […]\nThe signal intensity was measured within a region of interest (ROI) including the entire tumor, drawn by an operator on each MR image using a dedicated software (MR Research Systems Ltd, Surrey UK). Signal intensity enhancement (Enh %) was determined as: Enh %=100*(SIx(t)−SI0)/SI0 where SI0 and SIx(t) were the signal intensity of tumor pre and post injection of the contrast agent (test articles or reference), respectively.", "note": "Ends that are not written are not given here.", "data": [{"substance": "Chelate Complex 1: Gd chelate (four DTPA-Glu) conjugated via linker to fibrin-binding peptide SEQ ID NO:001 (WQPCPAESWTFCWDPGGGK; cysteine pairing not given here; also: Gd chelate (four DTPA-Glu) conjugated via linker, site not given here, metal complex: Gd)", "values": [{"measurement": "Tumor signal enhancement (T1 weighted MRI), in words", "result": "high signal enhancement inside tumor"}, {"measurement": "Tumor signal enhancement (T1 weighted MRI), in words", "setting": "listed as chelate complex 1", "result": "significant tumor signal enhancement"}]}]}
